Reference: article PMC7749166 (Communications Biology, 2020)

Tests used:
[1] = test system: C5aR2; details: cited from earlier work
Description: Our mechanistic insights into the C5a binding process to C5aR could offer a new framework to a better understanding or the intriguing functional divergence between the two C5a receptors and could potentially allow delinea ...

[2] = test system: C5aR∆Tyr; assay: FD-/FV-based AFM dynamic force spectroscopy vs Tyr mutant (Y11F, Y14F); assay type: binding, human; details: C5a tip (probes effector site), FNdY fit
Description: Finally, to obtain the full picture of the binding mechanism between C5a and its receptor, we also investigated the binding interaction between the C-terminal segment of C5a and the effector site. To achieve this, we abolished the interaction that the rigid core of C5a establishes with sulfonated residues at the binding site, so the C5aR∆Tyr mutant with mutation sites Y11F and Y14F was generated. The lack of sulfonation on the C5aR∆Tyr mutant was validated by western blot using anti-sulfated tyrosine antibodies (Fig. S1). The interaction between the C5a ligand and C5aR∆Tyr was measured and the dependence of the rupture force with the loading rate was plotted in the DFS graph in Fig. 5d. We extracted an equilibrium force Feq of 32 ± 5 pN, a binding equilibrium free energy ΔGbu of −4.7 ± 1.4 kcal mol^−1, and a receptor–ligand half-residence time, τ0.5 of 0.6 ms.
The reconstituted C5aR sample solution (either wt-C5aR or mutants) was 20-fold diluted in fusion buffer solution (20 mM HEPES, 300 mM NaCl, and 25 mM MgCl2) and adsorbed on freshly cleaved mica for 15 min. After rinsing with imaging buffer (20 mM HEPES and 300 mM NaCl) the sample was transferred to the AFM.
Rectangular Si3N4 AFM cantilevers with silicon tips (BioLever mini, Bruker) were first cleaned with chloroform for 10 min, rinsed with ethanol, N2 dried, and then cleaned for 15 min in an ultraviolet radiation and ozone cleaner (UV-O, Jetlight, CA, USA). For the aminofunctionalization, the cantilevers were immersed in an ethanolamine solution (3.3 g ethanolamine in 6.6 ml DMSO) overnight and then rinsed in DMSO (3 × 1 min) and ethanol (3 × 1 min), followed by N2 drying. This was followed by the N-hydroxysuccinimide (NHS)-PEG27-acetal linker attachment. A 1 mg portion of the NHS-PEG27-acetal linker (JKU, Linz, Austria) was diluted in 0.5 ml chloroform with 30 µl triethylamine and the cantilevers were immersed in this solution for 2 h. […]

B1: C5a: C5a, a large 74-amino acid glycoprotein; endogenous ligand of C5aR (His6-tag at N-terminal end for AFM tips) (protein)
chain: TLQKKIEEIAAKYKHSVVKKCCYDGACVNNDETCEQRAARISLGPRCIKAFTECCVVASQLRANISHKDMQLGR
modifications: left off: His6, N-terminal, kept
[1]
  C5a binding to C5aR2 upon mutation of three N-terminal tyrosine residues: did not significantly change C5a binding to C5aR2
  G-protein coupling at C5aR2: without any detectable G-protein coupling
  β arrestins (βarr) recruitment at C5aR2: robust β arrestins (βarr) recruitment
[2]
  residence time τ0.5: 0.6 ms
[2]; ± s.e.m.
  binding equilibrium free energy ΔGbu: -4.7 ± 1.4 kcal/mol
  equilibrium force Feq: 32 ± 5 pN
